B1: BMAL2 transactivation domain (TAD), residues 540-579 (domain or fragment, mouse, UniProt Q2VPD4 540-579, looked up)
chain: LGFDVLCDSDSIDMAAFMNYLEAEGGLGDPGDFSDIQWAL
B2: mouse CBP KIX domain (domain or fragment)
chain: not shown

Assay [1] addresses p300 KIX domain (residues 565-653) (mouse, UniProt B2RWS6 565-653). As to the kind of experiment: NMR titration.
The target of assay [2] is B1. As to the kind of experiment: ITC. In general terms: Isothermal titration calorimetry measures the heat released or taken up as one component is titrated into another.

Sequence of p300 KIX domain (residues 565-653) (B2RWS6 565-653): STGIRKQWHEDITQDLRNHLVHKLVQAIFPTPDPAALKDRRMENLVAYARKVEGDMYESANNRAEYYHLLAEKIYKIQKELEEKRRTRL

Turning to B1, the binding result in assay [1] is listed as “binds”.
The term stoichiometry N denotes a count of units in the complex or per binding partner. For the molecule B2, the “stoichiometry N” value in assay [2] turned out to be 0.7.
Regarding MVNHAEASRLNIERMKQIYQQLSRYRGLGLLASV [mouse CRY1 CC peptide (residues 470-503)], the “stoichiometry N” value in assay [2] stood at 0.7.

The values are drawn from PMC4456216 (Nature structural & molecular biology, 2015).
